The source of these data is patent publication US20110165265A1, “TRAIL VARIANTS FOR TREATING CANCER” (FUNDACIÓ GENÒMICA (CRG), priority 2007, published 2011).

For one data set, the system named is TRAIL R1, R2, R3 and R4. Briefly: TRAIL receptor membrane expression by flow cytometry. The class given is cell-based.
For a further data set, the system named is Colo205 tumors. Briefly: Colo205 tumors in athymic nude mice. Particulars: 40 and 200 mg/kg, 2×5 days. The data set is classed as in vivo.
Another data set relates to A2780 cells. Briefly: Microculture tetrazolium cytotoxicity assay in A2780. The class given is cell-based, human. The note with it: A2780, 4 h pre-incubation; read-out: inhibitory concentration 20% (IC20). On the procedure: The microculture tetrazolium assay, performed as described earlier^36, was used to measure cytotoxicity. […] In cell viability assays assessing combination treatment with cisplatin, the cells were pre-incubated for 4 h (h) with 2.5 μM cisplatin (inhibitory concentration 20%-IC20), before addition of 0-25 ng/ml TRAIL or TRAIL-DR5.

The subject of a further data set is A2780-Luc xenografts. Put plainly: IP A2780-Luc xenografts, bioluminescence imaging.
Data set [1] can be described thus: 125I-TRAIL biodistribution in tumor-bearing mice. The class given is in vivo. The procedure:
Radioiodination of TRAIL was performed with a TRAIL solution of 1 mg/ml in a pH 7.4 TRIS buffer, containing 100 μM zinc sulphate and 10% glycerol. 45 μg TRAIL and 50 μg chloramine T (Merck, Amsterdam, The Netherlands) were allowed to react with 70 MBq ^125I-NaI in 0.05 M NaOH (pH 9.0, GE Healthcare, Eindhoven, The Netherlands) during 3 min at pH 8.0. The labeling reaction was terminated with sodium metabisulfite (Acros Organics, Geel, Belgium). Non-bound ^1251 was removed by gel filtration chromatography. The PD-10 column (Sephadex™ G-25M, Amersham Biosciences AB, Uppsala, Sweden) was eluted with TRIS buffer, containing 100 μM zinc sulphate, 10% glycerol and 0.5% human serum albumin. Nude mice with IP A2780-Luc xenografts were prepared, as described above.
The in vivo biodistribution study was conducted in 50 mice after establishment of A2780-Luc IP xenografts. ^125I-TRAIL (0.15 ml; 150 kBq, 0.5 μg) was administered IV through retro-orbital injection in 25 mice, and IP in 25 mice. At five time points after injection (t=15, 30, 60, 90 and 360 min) groups of 5 mice were sacrificed and organs and tissues were excised, rinsed for residual blood and weighed. Tumor tissue was additionally fixed in 10% buffered formalin for histological assessment. Samples were counted for radioactivity in a calibrated well-type LKB-1282-CompuGamma counter. Tissue activity was expressed as percentage of the injected dose/g tissue (% ID/g). Tumor-to- blood and tumor-to-muscle ratios were also calculated. All data were corrected for physical decay and compared with a known standard sample. Pharmacokinetic parameters were derived using the KINFIT module of the MW/PHARM computer program package (version 3.50, MediWare, Groningen, The Netherlands). Clearance rates of ^125I-TRAIL from the circulation were calculated using non-linear regression analysis.

The test system of a further data set is p53. Briefly: p53 protein expression in cervical cancer cell lines. The data set is classed as cell-based. The procedure:
All three cervical cancer cell lines were treated with increasing concentration of Bortezomib to assess expression of p53 protein.

The mark [2] stands for this setting: Colo205, 5 mM Aspirin or 10 μM 5-Flurouracil, 24 h.
The mark [3] stands for this setting: Lovo, 2.5 mM Aspirin or 10 μM 5-Flurouracil, 24 h.
Where [4] appears, read: SW948, 2.5 mM Aspirin or 10 μM 5-Flurouracil, 24 h.

Description for A2780-Luc xenografts: Visualization of response to TRAIL, TRAIL-DR5, cisplatin and to the combination of either ligand with cisplatin by means of bioluminescence imaging. Nude mice were inoculated IP with 2×10^6 A2780-Luc cells. After 5 days treatment was initiated; cisplatin (4 mg/kg IP) or vehicle at day 5 and 12, TRAIL, TRAIL-DR5 (5 mg/kg IP) or vehicle at day 5-10 and 12-16, or a combination of TRAIL or TRAIL-DR5 with cisplatin.
Female nude mice (Hsd:Athymic Nude-nu) were obtained from Harlan Nederland (Horst, The Netherlands) at 6-8 weeks of age (˜21 g). Inoculation was performed after 10 days of acclimatization.
Imaging was conducted with the IVIS 100 series (Xenogen Corporation Alameda, Calif.), composed of a cooled charge-coupled device camera connected to a light tight black chamber. Before in vivo imaging animals were anesthetized with 4% isoflurane and injected IP with D-luciferin (150 mg/kg, Xenogen) reconstituted in sterile PBS. Mice were placed in prone position on a warmed stage (37° C.) in the imaging chamber, and grayscale reference images were obtained under dim illumination. Pseudocolor images representing bioluminescent intensity were acquired with Livinglmage software (version 2.50, Xenogen) 10 and 15 min after D-luciferin injection in complete darkness. These images were superimposed on the grayscale images for analysis with Igor Pro software (version 4.09, WaveMetrics, Lake Oswego, Oreg.). All bioluminescence imaging (BLI) data are depicted in radiance units (photons/sec/cm^2/sr) enabling absolute comparisons between bioluminescent images and represent final data obtained after subtraction of the background signal.
Description for TRAIL R1, R2, R3 and R4: Analysis of TRAIL-receptor membrane expression was performed by FACS analysis as described previously^35. For death receptor expression after cisplatin exposure, cells were exposed for 4 h, washed with PBS and incubated for 20 h in regular culture medium, after which FACS analysis was performed. Cells were subsequently washed twice with cold PBS containing 2% FCS and 0.1% sodium azide and incubated with phycoerythrin (PE)-conjugated mouse monoclonal antibodies against DR4, DR5, DcR1 and DcR2. Mouse PE-labeled IgG1 and IgG2B were used as isotype controls. All PE-labeled antibodies were purchased from R&D systems (Oxon, UK). Membrane receptor expression was analyzed with Winlist and Winlist 32 software (Verity Software House, Inc., Topsham, Me.) and is shown as mean fluorescent intensity (MFI) of all analyzed cells.
In order to determine the cell surface expression of each of the TRAIL receptors on A2780 carcinoma cells, cells were washed twice in PBS containing 1% BSA and then incubated with monoclonal antibodies to DR4, DR5, DcR1 or DcR2 (Alexis) for 40 min. After two wash steps with PBS/BSA, anti-mouse IgG-FITC (Sigma) secondary antibody was added for 30 min. All incubations were carried out on ice. Negative controls contained isotype control antibody. Cells were analyzed by a FacsCalibur flow cytometer.

Consider `O=c1[nH]cc(F)c(=O)[nH]1` [5-Flurouracil], for which the TRAIL receptor expression entry with TRAIL R1, R2, R3 and R4 (setting [2]) was “induction of all TRAIL receptors”; in the data set on TRAIL R1, R2, R3 and R4 (setting [3]) it was “induction of TRAIL R2, R3 and R4 receptors”; in the data set with TRAIL R1, R2, R3 and R4 (setting [4]), “did not lead to any induction of the TRAIL receptors”.

Take `CC(=O)Oc1ccccc1C(=O)O` [aspirin]: the “effect on tumor growth, aspirin alone” value in the data set with Colo205 tumors was “no difference in effect”. The side effects entry in the data set on Colo205 tumors is listed as “no side effects were found”. For the same compound, the TRAIL receptor expression result with TRAIL R1, R2, R3 and R4 (setting [2]) was “induction TRAIL R2, R3 and R4 receptor expression”; in the data set on TRAIL R1, R2, R3 and R4 (setting [3]) it was “induction TRAIL R4 and to a lesser extent TRAIL R2 receptor expression”; with TRAIL R1, R2, R3 and R4 (setting [4]), “induction TRAIL-R2 expression only”.

Turning to `N.N.[Cl][Pt][Cl]` [cisplatin, cis-diamminedichloroplatinum (II), reference compound], the IC20 in the data set on A2780 cells stood at 2500 nM. Besides, the “mean signal reduction as to vehicle treated mice” value in the data set with A2780-Luc xenografts (day 16, IP treatment) is recorded as 72.3%. For the same compound, the “light emission (bioluminescent signal)” value with A2780-Luc xenografts (day 16, mean±SEM) is reported as 1.3×10^8±2.4×10^7 radiance units. In the data set on A2780-Luc xenografts (surrogate endpoint signal ≧3.1×10^8), this compound registered a median survival of 28 days. Also, in the data set on TRAIL R1, R2, R3 and R4 (A2780), the TRAIL receptor expression entry is “dose dependent upregulation of DR5 and DcR2 expression”.

In the case of 125I-TRAIL: radioiodinated TRAIL, the “cleaved caspase-3 staining in tumor tissue” value in data set [1] (15 min after injection) is “almost no cleaved caspase-3 was detected”; in data set [1] (360 min after injection), “increased cleaved caspase-3 staining”. For the same compound, the blood activity in data set [1] (IP, 15 min) turned out to be 25.30±5.04 % ID/g; in data set [1] (IP, 30 min), 15.33±3.78 % ID/g; in data set [1] (IP, 90 min) it was 23.74±6.85 % ID/g; in data set [1] (IP, 360 min) it was 8.26±1.74 % ID/g; in data set [1] (IV, 15 min), 43.29±11.04 % ID/g; in data set [1] (IV, 30 min), 30.51±12.40 % ID/g. Further, the blood activity in data set [1] (IV, 90 min) is listed as 7.52±1.22 % ID/g; in data set [1] (IV, 360 min), 2.63±0.56 % ID/g. Further, the kidney uptake amounted to 19.83±1.38 % ID/g in data set [1] (IP, 15 min); 21.45±1.90 % ID/g in data set [1] (IP, 30 min); 17.87±1.28 % ID/g in data set [1] (IP, 90 min); 4.45±0.31 % ID/g in data set [1] (IP, 360 min); 199.2±40.69 % ID/g in data set [1] (IV, 15 min); 126.6±49.68 % ID/g in data set [1] (IV, 30 min). In addition, the kidney uptake in data set [1] (IV, 90 min) was found to be 12.73±2.47 % ID/g; in data set [1] (IV, 360 min) it was 2.06±0.56 % ID/g. For the same compound, the tumor activity in data set [1] (IP, 15 min) is recorded as 11.31±1.51; in data set [1] (IP, 60 min), 12.91±3.29; in data set [1] (IV, 60 min (maximum)) it was 6.85±1.29. Further, the “tumor to blood ratio” value in data set [1] (IP, 15 min) turned out to be 0.48±0.03; in data set [1] (IP, 60 min) it was 0.55±0.06; in data set [1] (IV, 15 min), 0.13±0.02; in data set [1] (IV, 60 min), 0.38±0.04.

Consider `CC(C)C[C@H](NC(=O)[C@H](Cc1ccccc1)NC(=O)c1cnccn1)B(O)O` [Bortezomib], for which the “induction of p53 protein” value with p53 (Caski) is “can be seen at concentrations of 1 nM with largest induction seen at 5 and 10 nM”; with p53 (HELA), “seen also at 5 and 10 nM, though relatively smaller”; in the data set with p53 (SiHa), “can be seen at 5 and 10 nM”. Also, the TRAIL receptor expression entry was “increased receptor expression of TRAIL R2 and slight increase of TRAIL R3” in the data set with TRAIL R1, R2, R3 and R4 (Caski, 5 nM, 24 h); “increases receptor expression of all TRAIL receptors” in the data set on TRAIL R1, R2, R3 and R4 (Hela, 10 nM, 24 h); “increases receptor expression of all TRAIL receptors” in the data set on TRAIL R1, R2, R3 and R4 (SIHA, 10 nM, 24 h).
